Assay results from patent US7582427B2, “Method of estimating drug metabolic activity by analyzing mutations in glucuronosyl transferase gene” (National University Corporation Shiga University of Medical …, priority 2002, dated 2009).
Where a chain is given by its changes, count along the chain named. Names may count otherwise.

T1: UGT1A1 (Homo sapiens, UniProt P22309, Y486D)
T1 sequence (P22309 26-533 Y486D): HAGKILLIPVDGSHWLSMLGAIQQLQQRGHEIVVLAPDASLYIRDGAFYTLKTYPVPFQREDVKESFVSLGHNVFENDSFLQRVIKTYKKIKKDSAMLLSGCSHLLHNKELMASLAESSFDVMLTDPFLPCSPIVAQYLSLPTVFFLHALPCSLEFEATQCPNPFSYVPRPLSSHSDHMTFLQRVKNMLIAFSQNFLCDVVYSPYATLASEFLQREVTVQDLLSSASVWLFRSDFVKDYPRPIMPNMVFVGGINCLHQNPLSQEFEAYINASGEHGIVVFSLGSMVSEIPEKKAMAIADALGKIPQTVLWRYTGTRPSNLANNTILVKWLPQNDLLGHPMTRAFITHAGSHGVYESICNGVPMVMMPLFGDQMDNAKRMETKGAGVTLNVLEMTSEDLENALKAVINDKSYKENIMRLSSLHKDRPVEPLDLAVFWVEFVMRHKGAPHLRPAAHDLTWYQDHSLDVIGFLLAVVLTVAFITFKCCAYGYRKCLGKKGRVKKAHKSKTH

B1: Y486D (homozygous): recombinant UGT1A1 molecule with Y486D mutation (exon 5), tyrosine replaced with aspartic acid at position 486 (protein, UniProt P22309 26-533, looked up, variant Y486D)
UDP-glucuronosyltransferase …: T1 sequence (P22309 26-533 Y486D)
modifications: homozygous
B2: Y486D (heterozygous): recombinant UGT1A1 molecule corresponding to heterozygous Y486D mutation (protein, UniProt P22309 26-533, looked up, variant Y486D)
UDP-glucuronosyltransferase …: T1 sequence (P22309 26-533 Y486D)
modifications: heterozygous
notes: recombinant UGT1A1 molecule corresponding to heterozygous Y486D mutation
B3: P229Q (heterozygous): recombinant UGT1A1 molecule corresponding to heterozygous P229Q mutation (protein, UniProt P22309 26-533, looked up, variant P229Q)
UDP-glucuronosyltransferase …: T1 sequence (P22309 26-533 Y486D) with P204Q, D461Y
modifications: heterozygous
notes: recombinant UGT1A1 molecule corresponding to heterozygous P229Q mutation

Assays:
UGT1A1 molecule = assay: UGT activity (glucuronidation) of recombinant UGT1A1 molecules, bilirubin as substrate; type: biochemical, human; settings: relative to normal
Text: Further, it was shown that an abnormality of drug metabolism can be assayed for more effectively by combining this detection with detection of (a) mutation(s) in the regions of exons 1 to 4 other than the exon 5 region.

UGT1A1 [1] = molecular target: T1, UGT1A1; assay: Enzyme kinetics of glucuronidation of 2-amino-5-nitro-4-trifluoromethylphenol by UGT1A1, normal versus Y486D; type: biochemical
Text: 2-amino-5-nitro-4-trifluoromethylphenol is glucuronidated by UGT. The enzymatic reactions in glucuronidation by the enzymes of each of the isoforms UGT1A1 and UGT1A6 between their normal molecules and molecules with Y486D mutation were compared, respectively.

UGT1A1 [2] = molecular target: T1, UGT1A1; settings: fraction of normal enzyme activity, background report; cited from earlier work

Molecule | UGT relative activity (glucronidation activity) (UGT1A1 molecule) [%] | maximum velocity relative to the maximum velocity of the wild type (UGT1A1 [1]; substrate 2-amino-5-nitro-4-trifluoromethylphenol) | Km value relative to wild type (UGT1A1 [1]; with respect to 2-amino-5-nitro-4-trifluoromethylphenol) | Km value relative to wild type (UGT1A1 [1]; with respect to UDP-glucuronate) | enzyme activity relative to that of the normal enzyme (UGT1A1 [2])
B1 | 8 | about 12% | about half of that of the wild type | equal to that of the wild type | 1/13
B2 | 36 |  |  |  | 
B3 | 15 |  |  |  | 
